# Reference: IntAct's records for PubMed 20173742
# B1: Kelch-like ECH-associated protein 1 (Mus musculus), Q9Z2X8 (parent)
# chain: MQPEPKLSGAPRSSQFLPLWSKCPEGAGDAVMYASTECKAEVTPSQDGNRTFSYTLEDHTKQAFGVMNELRLSQQLCDVTLQVKYEDIPAAQFMAHKVVLASSSPVFKAMFTNGLREQGMEVVSIEGIHPKVMERLIEFAYTASISVGEKCVLHVMNGAVMYQIDSVVRACSDFLVQQLDPSNAIGIANFAEQIGCTELHQRAREYIYMHFGEVAKQEEFFNLSHCQLATLISRDDLNVRCESEVFHACIDWVKYDCPQRRFYVQALLRAVRCHALTPRFLQTQLQKCEILQADARCKDYLVQIFQELTLHKPTQAVPCRAPKVGRLIYTAGGYFRQSLSYLEAYNPSNGSWLRLADLQVPRSGLAGCVVGGLLYAVGGRNNSPDGNTDSSALDCYNPMTNQWSPCASMSVPRNRIGVGVIDGHIYAVGGSHGCIHHSSVERYEPERDEWHLVAPMLTRRIGVGVAVLNRLLYAVGGFDGTNRLNSAECYYPERNEWRMITPMNTIRSGAGVCVLHNCIYAAGGYDGQDQLNSVERYDVETETWTFVAPMRHHRSALGITVHQGKIYVLGGYDGHTFLDSVECYDPDSDTWSEVTRMTSGRSGVGVAVTMEPCRKQIDQQNCTC
# partner: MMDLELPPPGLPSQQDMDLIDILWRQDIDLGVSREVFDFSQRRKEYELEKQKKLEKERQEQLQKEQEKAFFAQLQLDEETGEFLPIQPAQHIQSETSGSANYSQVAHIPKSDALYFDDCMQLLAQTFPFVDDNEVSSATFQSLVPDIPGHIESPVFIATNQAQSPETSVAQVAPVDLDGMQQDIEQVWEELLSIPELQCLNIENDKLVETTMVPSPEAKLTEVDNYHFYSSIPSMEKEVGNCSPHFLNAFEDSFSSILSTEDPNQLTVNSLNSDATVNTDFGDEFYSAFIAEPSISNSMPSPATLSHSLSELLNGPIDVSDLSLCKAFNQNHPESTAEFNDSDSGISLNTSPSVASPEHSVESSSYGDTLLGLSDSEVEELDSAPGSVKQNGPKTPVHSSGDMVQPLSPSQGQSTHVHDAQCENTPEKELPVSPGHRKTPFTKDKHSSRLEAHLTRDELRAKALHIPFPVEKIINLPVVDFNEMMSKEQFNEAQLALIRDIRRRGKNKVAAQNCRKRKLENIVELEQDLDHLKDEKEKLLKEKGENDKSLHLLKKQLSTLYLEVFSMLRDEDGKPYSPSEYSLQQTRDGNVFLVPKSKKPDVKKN
# Variants of: B1
# Conditions: with nf2l2_human NFE2L2, Q16236
row,Variant,effect of a mutation on the interaction
1,R380A,decreasing interaction
2,N382A,disrupting interaction
3,Y334A,disrupting interaction
4,R415A,disrupting interaction
5,S363A,disrupting interaction

# Now from value to variant:
row,effect of a mutation on the interaction,Variant
1,decreasing interaction,S555A
2,disrupting interaction,S508A
3,decreasing interaction,Q530A
4,disrupting interaction,S602A
